Reference: the domain aggregation screens of Martell et al. (2025)

Test: soluble fraction after stress (log2 fold change); higher = more stays soluble; pooled small domains, quantitative proteomics
Details: stress: 50 degC
In short: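 Custom libraries of small protein domains were pooled and measured in a high-throughput format, with quantitative proteomics as the read-out. Each library was stressed at 50°C. The value is the log2 fold change in the amount of each protein that stays soluble after stress, used as a measure of aggregation propensity; higher values mean more of the protein stays soluble.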

| Sequence | soluble fraction (log2) |
| --- | --- |
| HMQELGVISEGKYNIELNMVSWNDREPKYDIRSWAPDHSRMGKGISLTEEEMERLVELWNTRNE | -0.248 |
| HMTGRHEEAIQELKRTLELHPQKPKIFLLLGVSYLRLNNLKKAVEAFNTVLLLQPKNQKALTMLKEIKKR | 0.0384 |
| HMEDAWMKKELWDAIATLPKKQRLVMTMRLTNNHSYKEIAAILGISENSAKVSYHHAVERLKEKFK | -1.33 |
| HMEAQFIDINDVRIGTYVYVDLGWIKHPFALNSFKITSRDQIDTLIKLGVKRIRWSPEKSDS | -1.3 |
| HMTAYENSIPLNWVIQKGDAKGLPLSANTARLLIDIVGIDLMDLDHELEKISLYLSGESITEEMIKEHIRG | -0.668 |
| HMSNAIDDAVEKVISENLDLAKERGLQSMGPLMGLVMKELGGTADGKAVSEALRRKISEISD | 0.293 |
| HMKPSKYTLAIDSIPVHVTRKQMKSIRLRVTPLGEVRVSAPYGVKDSEIVEMVRSRKLWIESQQRA | -0.992 |
| HMKMTFGENLHKLRKIYRLSQEDVASAINLKRSDIAAVEKGDRVLNDEELDKLADFIGIDIVDLL | -0.193 |
| HMTGIELLSHREHQVYDLLTQGRTVTEIGAQLNLAPNTVSTYRARILEKTGTKNDVELALYAQRH | -0.209 |
| HMSVLRLGNRGPDVRKLQLLLNSTLVPSPQLTVDGDFGKRTEQAVVTFQQMRGLPQDGIVGQRTWALLGQT | -0.518 |
| HMHQIFAETVFEDIAFGPRNKGFNEEEVAKQVREAMAFVGLDYDTYAQRSPFQLSGGQMRRVAIAGVVA | -0.0418 |
| HMEQMSPYPNPSKGKIQFHNQEPMDIKVFNSLGQIVFEQRILSRAILDLSRLSPGQYIVQAGEQKNIWIK | -0.699 |
| HMTLDDSIALGRSLLDKGLMDFGTNLANLAEDKLRDFLSQQRYENLDDLFADIARGNRLPMFTAQQLLS | -0.187 |
| HMSSPPNPQLAKRYISYSVDDIARLFGIHRHTVREWIKRGLPVIDQQRPLLVQGADLAEFLRKRRA | -0.719 |
| HMDLVIALNSRIRVIREPFFGKLGTVIDLPHKLHKMESGTMTRVAKIKFDDRTEEIIPRTNLEVILS | -2.69 |
| HMLTRSASREELDQLLKRLRQNLKQKNFFWPPDKEKSLVLYLENLFSKFPLNSSDIRFLHGIIRTLSEK | -0.178 |
| HMNKKAAYKDMAGYFAEMKSKDAADILSRLKDEDIIGIFNEMPRDMVAEMLQKMDRDKATTLTRKML | 0.385 |
| HMNIDKLVGSTGTVVRSVTPDTAGLVRVNDEDWRASAEEILYERDAIVVEGIEGVTLIVSKLS | -0.43 |
| HMEAPWQEIKRQVMDGLDMSREFTDEELRERIALAVRSYSKEKLLSLKVRESYEEQIFNSFR | -0.239 |
| HMDTEIGDILALRQIMELLDEKDRQLIIMRYFQGLTQSVTAKNLNMTQVQVSRREKKLLTFMREQLL | -0.739 |
| HMGEELIEIQNLRNKERREAEAILKNLDLVPVIQEQFDDTVPINRVITTDPGPDSTVKKGTTVMIYVSKGP | 0.253 |
| HMLHEFSGVVVSILADTGPSTLKQLHRSLISSDVKMDEKELMQILDEALSSGSVTSHRKGRYLYYSANK | -0.58 |
| HMIAVLEEGSHFRAVNDVTGKPFGPEMVIKNGQVTAVGKTISTKPKNLLGKKEGTKFVISGKQYVIKDI | -0.00494 |

| Sequence | soluble fraction (log2) |
| --- | --- |
| HMIMTHSALLEKDGFDIVKVHFERPNDDGFDFLDMTLPGEIVYKSFGFSEDEILKLKRYAKNNSSLIWDF | -2.31 |
| HMNKTEIISILEKIVLPTQIRNINIFGSEVIIDLNIDNPSLHAKKKLEKSIINSFDKNHKIIINFNVE | -0.232 |
| HMSMEQAKAEEIEKLGDNAPERLQAAALFAEKFFPQDVMDAVYKITETADGVRAIEHIMQTVK | -1.28 |
| HMTKVKIDRLFSIVQMLVNRKSVTAKELADYFNVSVRTIYRDIEILSANGIPIYATQGKGGGISILEN | -1.05 |
| HMKEKIIKEPYDLFTTDKIGQALEVQALLARQGIKVQRRVDGTKSTLFLENYTQSEKDQALLAVVRSGIV | 0.161 |
| HMSKRIFPNEFQRNSPDAMVMLDKMNLSRINVDPLTKSLTLNGGGSVKTLLNGREVSAVEIAALSP | 0.0444 |
| HMTGLRETIPAALDGERLDRVVALLGDVSRSRASAALEAERVTLDGEVVTLRSHRVREGEELTVAGFE | 0.405 |
| HMQDIDIVDLKRISELIYQKYNYDFRNYAMSSFKRRVQRIIELKKLTVDGLIKRLNDTPSFINEFLDELTV | -0.139 |
| HMTMTKELGQRIRAERTARKMTQEELAERADLHPTYIGQVERGEKSLTIASLEKIVEGLGISFSDLFEN | -0.0406 |
| HMDPLGALSDRERQVLALIGQGHGLQAIADQLGVSYKTAANTSSALKKKLGVDGINGLMKFALDSG | -0.505 |
| HMNEKLNEYLNQVKAYLNTSDNKEDIIKELEAVVLEKAEKKYGQITDESISKILSEFGSPAEVAKEYS | 0.129 |
| HMSESKYKMIKNWIKSKILDGTLVPNQKIYSESELMEIFDVSRHTVRLAIGELVSEGYLFKRQGTGTFVTQ | -0.577 |
| HMPPTEQVYRSHVPPQYDGFPIEKYFTTRFSYQDVEEWSRQILAGKIEVNGKTALIGQILSASDLTVTRA | -0.855 |
| HMGTTIAMSKLKQVLRWKEEGYSNRKIAQLVGLNKETVNNYISRANADSLSQKELLQLDDFVLDIRLRG | -1.32 |
| HMAKTGMDALVGRRVVLTKAIAGEGEGLVAVDGDVWRATSPAGSAIPKGTEVRITGYRSIVLEVEPI | -0.184 |
| HMITGREMDVLEALWSSEKPLVASDIPKMKPSLSISSVQLALRNLVKKKLVEVADIVYSGTVLSRSYRP | 0.0545 |
| HMVSLTGEWRPSKDALDILITKGGINPNFIDDAVPEFILYWRDRGDVSNTWDSKFIQHVRRQWQFYTGI | -2.93 |
| HMTIEEMAIENINFSTQLLYKAMKYNGVNTVGDLLEKARSKKDLLTMAYIGNKEAEEIIEKLSELGITI | -0.23 |
| HMWMQKILGNYIAARRKELGMTQANLAEKIHVTDKAVSRWERGVGLPDIENLEALAKALEVSLVSLMQGKT | -1.59 |
| HMASIGVGTIVRVANAVNYNGVKVKAWFNDEGYEVTELSGDRAVLKHNGDLFDAFHVSDLEA | -1.29 |
| HMENTELIELRKKRNLSQSQLAELLDLTRNQIANYESGRRIPDQETKQIIAGFFEMPAEEIFAG | 0.0435 |
| HMKVWYAGINAQRVGPMTLGAMEQQIRYGRVLFSTLIWKSPMPQWVPAGDVPELRRLLDEHMLNQMP | -0.381 |
| HMTQSPLHWSHRPIDLSELLTYLDRDGAFVYASGHKAPFTEVVRGFEHLLNIRLGDPRDVKRSVLQR | -0.369 |

| Sequence | soluble fraction (log2) |
| --- | --- |
| HMKPTGWVRGDMGVVDKGQLSITQGTVNVRSGPGLSYEILDQVRRGDRFPVIKSQSGWHNISM | 0.0818 |
| HMGSEISLNAFNIPKGSVSVTAGGTKLVENQDYTVDYTLGRIKILNEGILNSGVPIQVNFENNTLFN | 0.0829 |
| HMFSNATISGLKAGALVRVYNISGVAVSTLTADAEGKVSVDLNNLPKGVYILSTPSKSFKVLN | -0.54 |
| HMITPKQTAETLGIATSTLRRWASEFEPFLSLRTGVKRTYTTDDITTLKRVKDLFAQGLKTEQVREAL | -0.161 |
| HMSPSRRENLTAAAKEYFVNTQIRHKTFGNGVIIKRSGNIAAIRFDNGTIKQIDLIAALQAKVLSIL | 0.168 |
| HMTNEAFITPSVLEWAIKRAGVSAESIHKKAEQWVSGKARPTFKQAVDIAKTLQIPFGYLWLKEPPKEQ | -0.551 |
| HMNYKLESYLKKVDDQLNFIPVSDKADILSELKNTFYERLLNGQTEEEILDEMESPRELALSYMSES | 0.0578 |
| HMKTDFEIDITVKASSLRVVASPGGDELVGTVTRGDRVTQLATPKDGWILIKMTDGRLGYVPESLLLFP | -0.0577 |
| HMSEIYVDDINRKILYLLSQGIKTKSLLEHIPLSMSGIEKRKKQLKMLFSVEDGKDETLLEMAKEKGF | -1.45 |
| HMREGNELLGKEGVTVSELRPAGIALIDGRRTDVVTDGEFVAVDQAVEVVEVSGNRVVVRRS | 0.0948 |
| HMQDAVASEKIQLMSEALHARDTGDLLLAKEKVEKLIALAPNDKNIQALLLTINQSIEDKGL | 0.101 |
| HMDIVGAINKIESMKQDRYLAMHPYSITHSADGYYRTYLPADDGKRKQIKKKSKSDLEKVVIDYWTKRS | 0.0365 |
| HMQEAGKWLKKLRTERKITLEQLSKKTGLSVGFLSQFERGLTSIAIDTLEKIAAVFNVTIDYFISP | 0.0423 |
| HMKKTETVRFTTNVTHGTKIKETDVEVVKISNSALPDKVVKNKTEVIGKYATADLFKGDFATENKVTD | 0.0533 |
| HMGSTYGISRVDNETSRTHGWLVTIQRRGVIYRKHFSDGVFGGKQRSFAAAKEYRDEVIAAHP | -0.672 |
| HMSVTVMVLRAAGDIQAGTEITDKHLATVEVGEYGLPEGIINDKDSILGKIALTDIAKGDYFFSQKLG | -0.134 |
| HMGIAWGMLREQVAASDVSYRSEVLDILDRTPVWIYDAEGKIVDGRKKRLMDLQGGEPYRHMLEHFFPDLR | -2.48 |
| HMDINVDILPLLKTMTDTLRKVIELDIPFLKDARVQRVNSLDELLLRADITTAEKFRKVFEAYQIEADFGK | -0.804 |
| HMEAVIGGIYRHYKGNNYKLLAVATHSETLEKMAVYQALYGEMGIWVRPLAMFMETIEKDGQSLKRFE | -1.78 |
| HMTLNQEELMGKTEAILFAGGEPVSLDRIAQVLGVRTPVIDSIVSALQEKYNTPTSGIQLMRL | -0.143 |
| HMIVIMAKESSPAELEGVKNRIESHPGLRPQVFDGVERIVVGVLGSIPPDLKDEIELLPGVIEVVPISK | -0.0582 |
| HMAQVVMPNVVGKTEKDATATLEGKNLKVNVEYNLDATSDDGIVKEQSIKSGENIDEGTEITLKVNKV | -1.07 |
| HMQSRRTPASLVERVRQLNGQYQDKEIAELLNREGIKTAHGNEFNAKRIEMIRRHNGISKHSAQ | 0.174 |
